The values that follow come from the supplement of paper PMC7877785.

The nature of the data set: self-splicing fitness, log relative to wild type (ln ratio); higher = more splicing; Tetrahymena group I intron in knt gene, E. coli kanamycin selection, DiMSum; sequences stand for … in CUCUCU…GGAGGGAAAAGUUAUCAGGCAUGCACCUGGUAGCUAGUCUUUAAACCAAUAGAUUGCAUCGGUUUAAAAGGCAAGACCGUCAAAUUGCGGGAAAGGGGUCAACAGCCGUUCAGUACCAAGUCUCAGGGGAAACUUUGAGAUGGCCUUGCAAAGGGUAUGGUAAUAAGCUGACGGACAUGGUCCUAACCACGCAGCCAAGUCCUAAGUCAACAGAUCUUCUGUUGAUAUGGAUGCAGUUCACAGACUAAAUGUCGGUCGGGGAAGAUGUAUUCUUCUCAUAAGAUAUAGUCGGACCUCUCCUUAAUGGGAGCUAGCGGAUGAAGUGAUGCAACACUGGAGCCGCUGGGAACUAAUUUGUAUGCGAAAGUAUAUUGAUUAGUUUUGGAGUACUCGUGGUCG
In a few lines: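 Pooled colonies went to amplicon sequencing on an Illumina HiSeq 2500 after six replicate transformations. The plates were LB agar with 100 μg/mL carbenicillin, 50 μM IPTG and 0.2% rhamnose, with or without 25 μg/mL kanamycin, incubated overnight at 37°C or 30°C. The E. coli BL21(DE3) library had all eight P1ex-region intron nucleotides randomised, the intron placed in the knt kanamycin-resistance gene on pET-22b(+). DiMSum fitness is the error-weighted combination of replicate fold changes, kanamycin against none, normalised to wild type.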

± gives the uncertainty stated by the source.

Take AUAGAGCAAUAUUACGAUUC: the “self-splicing fitness (ln)” value is -2.37 ± 0.28 (30 °C) and -1.08 ± 0.33 (37 °C).
The corresponding values for AUAGAGCAAUAUUACGAUUU are -0.251 ± 0.081 and 0.0148 ± 0.1.
In the case of AUAGAGCAAUAUUACGCAGA, the “self-splicing fitness (ln)” value reads like this: (30 °C) -2.57 ± 0.21; (37 °C) -1.84 ± 0.16.
Regarding AUAGAGCAAUAUUACGCAGC, where the note is “30 °C”, the “self-splicing fitness (ln)” value was -2.33 ± 0.45.
Turning to AUAGAGCAAUAUUACGCAUC, the “self-splicing fitness (ln)” value (30 °C) is -3.91 ± 0.31 and the “self-splicing fitness (ln)” value (37 °C) was -2.11 ± 0.25.
The corresponding values for AUAGAGCAAUAUUACGCAUG are -1.85 ± 0.16 and -1.42 ± 0.23.
The matching figures for AUAGAGCAAUAUUACGCCGU: -0.866 ± 0.21 and 0.511 ± 0.26.
The matching figures for AUAGAGCAAUAUUACGCGCG: -1.47 ± 0.2 and -0.725 ± 0.23.
Take AUAGAGCAAUAUUACGCGCU: the “self-splicing fitness (ln)” value was -2.64 ± 0.29 (30 °C) and -0.717 ± 0.24 (37 °C).
The matching figures for AUAGAGCAAUAUUACGCGGA: -1.35 ± 0.092 and -1.48 ± 0.11.
The matching figures for AUAGAGCAAUAUUACGCGUC: -1.8 ± 0.39 and -1.82 ± 0.26.
The matching figures for AUAGAGCAAUAUUACGCUAA: -1.33 ± 0.13 and -0.315 ± 0.18.
As to AUAGAGCAAUAUUACGCUGA, the “self-splicing fitness (ln)” value (30 °C) was -1.26 ± 0.15 and the “self-splicing fitness (ln)” value (37 °C) was -1.03 ± 0.17.
The corresponding values for AUAGAGCAAUAUUACGGAAC are -3.66 ± 0.27 and -1.92 ± 0.24.
Consider AUAGAGCAAUAUUACGGCAA, for which the “self-splicing fitness (ln)” value was -1.97 ± 0.21 (30 °C) and -0.382 ± 0.17 (37 °C).
Regarding AUAGAGCAAUAUUACGUAGA, the “self-splicing fitness (ln)” value is -3.41 ± 0.25 (30 °C) and -2.52 ± 0.24 (37 °C).
The corresponding values for AUAGAGCAAUAUUACGUAGG are -2.32 ± 0.18 and -2.65 ± 0.38.
Consider AUAGAGCAAUAUUACGUAUC, for which the “self-splicing fitness (ln)” value is -2.94 ± 0.37 (30 °C) and -2.16 ± 0.43 (37 °C).
The corresponding values for AUAGAGCAAUAUUACGUGGG are -3.77 ± 0.31 and -1.79 ± 0.32.
Take AUAGAGCAAUAUUACGUUAA: the “self-splicing fitness (ln)” value was -2.32 ± 0.19 (30 °C) and -1.76 ± 0.23 (37 °C).
The corresponding values for AUAGAGCAAUAUUACGUUCU are -1.35 ± 0.15 and 0.267 ± 0.17.
Consider AUAUAGCAAUAUUACGAACG, for which the “self-splicing fitness (ln)” value (30 °C) was -1.56 ± 0.18 and the “self-splicing fitness (ln)” value (37 °C) is -0.154 ± 0.2.
For the sequence AUAUAGCAAUAUUACGAAGC, for the setting “30 °C”, the “self-splicing fitness (ln)” value is -2.96 ± 0.31.
AUAUAGCAAUAUUACGAAGU: the “self-splicing fitness (ln)” value is, setting by setting: (30 °C) -3.37 ± 0.3; (37 °C) -1.63 ± 0.36.
Regarding AUAUAGCAAUAUUACGAAUA, under “30 °C”, the “self-splicing fitness (ln)” value was -1.36 ± 0.32.
For AUAUAGCAAUAUUACGACGG, the “self-splicing fitness (ln)” value is, setting by setting: (30 °C) -2.5 ± 0.17; (37 °C) -2.5 ± 0.22.
The corresponding values for AUAUAGCAAUAUUACGAUGU are 0.361 ± 0.18 and -0.83 ± 0.23.
Regarding AUAUAGCAAUAUUACGCGAA, the “self-splicing fitness (ln)” value (37 °C) was -1.32 ± 0.23.
With AUAUAGCAAUAUUACGCGAG, the “self-splicing fitness (ln)” value was -2.35 ± 0.13 (30 °C) and -1.09 ± 0.13 (37 °C).
Turning to AUAUAGCAAUAUUACGCGAU, the “self-splicing fitness (ln)” value runs as follows: (30 °C) -2.69 ± 0.33; (37 °C) -1.57 ± 0.49.
The corresponding values for AUAUAGCAAUAUUACGCGGG are -2.72 ± 0.38 and -1.33 ± 0.22.
The corresponding values for AUAUAGCAAUAUUACGCGGU are -2.75 ± 0.18 and -2.28 ± 0.19.
The corresponding values for AUAUAGCAAUAUUACGCUGU are -2.9 ± 0.22 and -2.32 ± 0.21.
AUAUAGCAAUAUUACGGAAU: the “self-splicing fitness (ln)” value reads like this: (30 °C) -1.92 ± 0.21; (37 °C) 0.227 ± 0.23.
The corresponding values for AUAUAGCAAUAUUACGGACA are -1.48 ± 0.22 and -1.2 ± 0.23.
Consider AUAUAGCAAUAUUACGGAGG, for which the “self-splicing fitness (ln)” value (30 °C) was -3.24 ± 0.45.
Consider AUAUAGCAAUAUUACGGCCG, for which the “self-splicing fitness (ln)” value (30 °C) was -1.15 ± 0.2 and the “self-splicing fitness (ln)” value (37 °C) was -0.566 ± 0.25.
Take AUAUAGCAAUAUUACGGGAC: the “self-splicing fitness (ln)” value is, setting by setting: (30 °C) -2.51 ± 0.48; (37 °C) -1.82 ± 0.48.
With AUAUAGCAAUAUUACGGGAG, the “self-splicing fitness (ln)” value reads like this: (30 °C) -4.22 ± 0.39; (37 °C) -1.59 ± 0.24.
In the case of AUAUAGCAAUAUUACGGGCG, the “self-splicing fitness (ln)” value was -1.47 ± 0.17 (30 °C) and -0.59 ± 0.15 (37 °C).
The matching figures for AUAUAGCAAUAUUACGGUCA: -1.16 ± 0.23 and -0.947 ± 0.19.
The matching figures for AUAUAGCAAUAUUACGGUCC: -2.8 ± 0.25 and -1.44 ± 0.33.
The corresponding values for AUAUAGCAAUAUUACGGUCG are -1.44 ± 0.13 and -1.26 ± 0.17.
Turning to AUAUAGCAAUAUUACGGUCU, the “self-splicing fitness (ln)” value is -0.211 ± 0.076 (30 °C) and 0.0619 ± 0.1 (37 °C).
Consider AUAUAGCAAUAUUACGUCCG, for which, where the note is “37 °C”, the “self-splicing fitness (ln)” value is -1.64 ± 0.43.
Regarding AUAUAGCAAUAUUACGUCGC, the “self-splicing fitness (ln)” value was -2.48 ± 0.27 (30 °C) and -1.31 ± 0.37 (37 °C).
As for AUAUAGCAAUAUUACGUUCU, the “self-splicing fitness (ln)” value (30 °C) was -1.47 ± 0.18 and the “self-splicing fitness (ln)” value (37 °C) is -0.302 ± 0.21.
Consider AUAUAGCAAUAUUACGUUGA, for which the “self-splicing fitness (ln)” value was -2.63 ± 0.22 (30 °C) and -2.53 ± 0.26 (37 °C).
Take AUAUAGCAAUAUUACGUUUC: the “self-splicing fitness (ln)” value is, setting by setting: (30 °C) -2.54 ± 0.27; (37 °C) -1.45 ± 0.3.
The matching figures for AUCAAGCAAUAUUACGAGCG: -1.92 ± 0.12 and -1.21 ± 0.14.
As for AUCAAGCAAUAUUACGAUUC, the “self-splicing fitness (ln)” value by setting is: (30 °C) -2.14 ± 0.12; (37 °C) -1.25 ± 0.16.
On to AUCAAGCAAUAUUACGCAAA, for which the “self-splicing fitness (ln)” value runs as follows: (30 °C) -2.96 ± 0.2; (37 °C) -1.67 ± 0.15.
The matching figures for AUCAAGCAAUAUUACGCAGC: -2.12 ± 0.2 and -1.8 ± 0.25.
AUCAAGCAAUAUUACGCAUA: the “self-splicing fitness (ln)” value (30 °C) is -1.94 ± 0.099 and the “self-splicing fitness (ln)” value (37 °C) was -0.751 ± 0.084.
The corresponding values for AUCAAGCAAUAUUACGCAUC are -3.97 ± 0.24 and -1.64 ± 0.14.
As for AUCAAGCAAUAUUACGCUCG, the “self-splicing fitness (ln)” value (30 °C) was -0.803 ± 0.091 and the “self-splicing fitness (ln)” value (37 °C) was -0.236 ± 0.11.
The matching figures for AUCAAGCAAUAUUACGGGAU: -2.33 ± 0.097 and -2.12 ± 0.13.
As to AUCAAGCAAUAUUACGGGUA, the “self-splicing fitness (ln)” value is -2.04 ± 0.11 (30 °C) and -1.16 ± 0.091 (37 °C).
On to AUCAAGCAAUAUUACGGGUC, for which the “self-splicing fitness (ln)” value is -3.33 ± 0.29 (30 °C) and -2.19 ± 0.27 (37 °C).
The corresponding values for AUCAAGCAAUAUUACGGUAU are -1.93 ± 0.063 and -0.833 ± 0.077.
Regarding AUCAAGCAAUAUUACGGUCG, the “self-splicing fitness (ln)” value by setting is: (30 °C) -2.22 ± 0.12; (37 °C) -2.03 ± 0.14.
As to AUCAAGCAAUAUUACGUCCC, the “self-splicing fitness (ln)” value by setting is: (30 °C) -0.841 ± 0.076; (37 °C) 0.17 ± 0.11.
The corresponding values for AUCAAGCAAUAUUACGUUAU are -2.29 ± 0.1 and -0.69 ± 0.09.
The matching figures for AUCAAGCAAUAUUACGUUCU: -0.858 ± 0.092 and -0.459 ± 0.12.
The matching figures for AUCCAGCAAUAUUACGAAAC: -2.56 ± 0.11 and -1.47 ± 0.16.
AUCCAGCAAUAUUACGACAG: the “self-splicing fitness (ln)” value (30 °C) is -3.47 ± 0.14 and the “self-splicing fitness (ln)” value (37 °C) was -1.75 ± 0.19.
On to AUCCAGCAAUAUUACGAGCG, for which the “self-splicing fitness (ln)” value is -2.01 ± 0.11 (30 °C) and -1.24 ± 0.12 (37 °C).
AUCCAGCAAUAUUACGAGGA: the “self-splicing fitness (ln)” value by setting is: (30 °C) -2.21 ± 0.17; (37 °C) -1.49 ± 0.17.
In the case of AUCCAGCAAUAUUACGAUAA, the “self-splicing fitness (ln)” value is -1.56 ± 0.15 (30 °C) and -1.03 ± 0.19 (37 °C).
The matching figures for AUCCAGCAAUAUUACGAUUU: -0.0954 ± 0.061 and 0.488 ± 0.081.
Take AUCCAGCAAUAUUACGCCAG: the “self-splicing fitness (ln)” value is -0.923 ± 0.44 (30 °C) and -2.6 ± 0.48 (37 °C).
The matching figures for AUCCAGCAAUAUUACGCCAU: -3.28 ± 0.21 and -1.27 ± 0.14.
AUCCAGCAAUAUUACGCCGC: the “self-splicing fitness (ln)” value is -4.25 ± 0.46 (30 °C) and -2.58 ± 0.38 (37 °C).
With AUCCAGCAAUAUUACGCCGG, the “self-splicing fitness (ln)” value (30 °C) is -3.51 ± 0.24 and the “self-splicing fitness (ln)” value (37 °C) is -2.36 ± 0.41.
The corresponding values for AUCCAGCAAUAUUACGCCUC are -1.53 ± 0.089 and -1.06 ± 0.14.
With AUCCAGCAAUAUUACGCGUC, the “self-splicing fitness (ln)” value was -3.24 ± 0.12 (30 °C) and -1.3 ± 0.13 (37 °C).
The corresponding values for AUCCAGCAAUAUUACGCUCC are -0.802 ± 0.12 and 0.304 ± 0.2.
